Data as given in patent US20120207760A1.

How the values were obtained:
Conditions in all cases: remark: other sources report otherwise
[1] = molecular target: recombinant soluble homotrimeric HA of A/Common magpie/Hong Kong/5052/07 - H5N1 (Influenza A virus A/common magpie/Hong Kong/5052/2007 (H5N1)); experiment: micro-array; captured IgG, V5-tagged trimeric HA
[2] = molecular target: Hemagglutinin of influenza A/Japan/305/57 (H2N2), on inactivated whole virions (Influenza A virus A/Japan/305/1957 (H2N2)), P03451; experiment: ELISA, B cell culture supernatant on inactivated whole virions
[3] = molecular target: recombinant soluble homotrimeric HA of A/common magpie/Hong Kong/5052/07 (H5N1) (Influenza A virus A/common magpie/Hong Kong/5052/07 (H5N1)); experiment: microarray, BCC supernatant IgG, trimeric HA

Row | Binder | Trimeric HA Binding: RLU [1] | other results
1 | TCN-542 (5079_A16) (antibody, V domains shown) VH: QVQLQESGPGLVKPSQTLSLTCTVSGGSISSGNYYWNWVRQHPGKGLEWIGYIYYRGSTFYNPSLKSRVTISIDTSKNQFSLRLSSVTAADTAVYYCAKDTRSSLDNYQYGMDVWGQGTTVTVSS VL: QTVVTQEPSLTVSPGGTVTLTCASSTGAVTSSYFPNWFQQKPGQAPRPLIYSTTIRHSWTPARFSGSLLGGKAALTLSGVQPEDEADYYCLLYSGGDPVAFGGGTKLTVL | 1670 RLU | 
2 | TCN-539 (5056_A08) (antibody, V domains shown) VH: QVQLVESGGGVVQPGRSLRLSCAASEITFITYAMHWVRQAPGKGLEWVALISDDGSNKFYADSVKGRFTISRDNSKNTLYLQMNSLRAEDTAAYYCAREGVYFDSGTYRGYFDYWGQETLVTVSS VL: EIVLTQSPATLSLSPGERATLSCRASQSVSSYLAWYQQKPGQAPRLLIYDASNRATGIPARFSGSGSGTDFTLTISSLEPEDFAVYYCQQRSHWPPITFGQGTRLEIK | 1440 RLU | 
3 | TCN-551 (5243_D01) (antibody, V domains shown) VH: EVQLVQSGSEVKKPGESLKISCKGSGYSFSNYWIGWVRHMPGKGLEWMGIIYPGDSDTRYSPSFQGQVTMSADKSSSTVYLQWSSLKASDTAIYYCARRGGHSFGYGSGGDTHSEFDSWGQGTLVTVSS VL: QSVLTQSPSVSAAPGQKVTISCSGSDSNIGDYFVCWYQHLPGKPPQLLIYENNKRPSGIPDRFSGSKSGTSATLGITGIQTGDEADYYCATWDGSLSAWVFGGGTKLTVL |  | OD450 [2]: 0.19 OD450
4 | TCN-533 (5256_A17) (antibody, V domains shown) VH: QVQLVQSGADVKKPGSSVTVSCKASGGSFSNYGINWVRQAPGQGLEWMGGIIPLINAPNYAPKFQGRVTITADMFSNIVSLQLTSLRTDDTAVYYCARRKMTTAIDYWGQGTLVTVSS VL: QPVLSQPPSASASLGASVTLTCTLSSGFDNYQVAWYQQRPGKGPRFVMRVGNGGNVASKGDGIPDRFSVSGSGLNRYLTIKNIQEDDESDYYCGADHGSGNNFVSPYVFGGGTKLTVL |  | Trimeric HA Binding: RLU [3]: 44500 RLU
